The target in assay [1] is T1, glutathione-S-transferase (GST) alone, not fused to Vif (UniProt P08515 1-218 = GST). In words: GST pull-down, 35S in vitro translated protein, SDS-PAGE autoradiography, FIG. 3b lane 13.
The target of assay [2] is T1, glutathione-S-transferase (GST) alone, …. Briefly: GST pull-down, 35S in vitro translated protein, SDS-PAGE autoradiography, FIG. 3c lane 14.
Text: (§1) Lanes 7 to 12 represent the respective pull-down results of the afore-mentioned radioactively labelled in vitro translated proteins by GST-Vif glutathione sepharose beads. […] Lanes 13 to 18 represent the control for the specificity of the GST pulldown experiment, i.e. for the binding specificity of the in vitro translated proteins to Vif. Therefore, lanes 13 to 18 in particular represent the results of GST pull-down, wherein GST was used alone, i.e. without being fused to Vif.
(§2) The binding of interaction candidates to Vif was performed with shaking for one hour at room temperature in binding buffer containing 20 mM NaCl, 20 mMTris pH 8.0, 0.5% NP40 and bovine serum albumine 100 μg/ml. After incubation beads were pelleted by spinning at 500 g for 2 min. and 4 washing steps with 1 ml washing buffer (binding buffer without serum albumin) were followed.
For assay [3] the target is unchanged. Briefly: GST pull-down, 35S in vitro translated protein, SDS-PAGE autoradiography, FIG. 3b lane 12.
The target is the same in assay [4]. Briefly: GST pull-down, 35S in vitro translated protein, SDS-PAGE autoradiography, FIG. 3c lane 15.
Text: as §1, §2

T1 sequence (P08515 whole entry, the tested form may be a part): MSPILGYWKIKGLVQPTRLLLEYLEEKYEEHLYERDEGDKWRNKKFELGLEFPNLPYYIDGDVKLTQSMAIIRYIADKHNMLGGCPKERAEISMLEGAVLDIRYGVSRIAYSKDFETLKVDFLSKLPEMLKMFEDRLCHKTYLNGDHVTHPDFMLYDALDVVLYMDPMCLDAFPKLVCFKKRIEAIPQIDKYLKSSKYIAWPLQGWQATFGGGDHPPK

Consider VLIVCVPNPPIDEKNATMPVTMLIRVKTSEDADELHKILLEKKDA (other) [in vitro translated NUP50], for which, in assay [1], the binding result is “no binding”.

B1: in vitro translated TPT1 (other, human, UniProt P13693 1-172, looked up)
chain: MIIYRDLISHDEMFSDIYKIREIADGLCLEVEGKMVSRTEGNIDDSLIGGNASAEGPEGEGTESTVITGVDIVMNHHLQETSFTKEAYKKYIKDYMKSIKGKLEEQRPERVKPFMTGAAEQIKHILANFKNYQFFIGENMNPDGMVALLDYREDGVTPYMIFFKDGLEMEKC
notes: also called TCTP
As for B1, in assay [2], the binding result was “no binding”.

B2: in vitro translated HERC4 (other, human, UniProt Q5GLZ8 915-1057, looked up)
chain: AFHAGFHKVCGGKVLLLFQPNELQAMVIGNTNYDWKELEKNTEYKGEYWAEHPTIKIFWEVFHELPLEKKKQFLLFLTGSDRIPILGMKSLKLVIQSTGGGEEYLPVSHTCFNLLDLPKYTEKETLRSKLIQAIDHNEGFSLI
For the molecule B2, the binding result in assay [3] is listed as “no binding”.

B3: in vitro translated PTGES3 (other)
chain: RRDYVFIEFCVEDSKDVNVNFEKSKLTFSCLGGSDNFKHLNEIDLFHCIDPNDSKHKRTDRSILCCLRKGESGQSWPRLTKERAKLNWLSVDFNNWKDWEDDSDEDMSNFDRFSEMMNNMGGDEDVDLPEVDGADDDSQDSDDEKMPDLE
Regarding B3, the binding result in assay [4] was “no binding”.

Source of the values: patent publication US20110065198A1 (NEXIGEN, published 2011).
